In publication PMC12804970, “Molecular basis of XPF-ERCC1 targeting to SLX4-dependent DNA repair pathways” (Nature Communications, 2025):

Biological target: T1, His6-XPF (xeroderma pigmentosum complementation group F), wild type (human, UniProt Q92889 1-916)
T1 construct: XPF (ERCC4), human; Always co-expressed with ERCC1; also called ERCC4; XPF^WT; source: Sf9 (small-scale assays: Sf9 or Hi5), baculovirus co-expression with ERCC1; purified as complexes (Ni-NTA or Strep-Tactin, Capto HiRes Q, Superdex 200) or in insect cell lysate; not shown: His6, N-terminal, kept
Test: co-purification (Strep-Tactin, ion exchange, SEC); co-infection of Sf9 with His6-XPF-ERCC1(-SLX4IP) and Twin-Strep-SLX4 fragment viruses; capture by the Twin-Strep tag on SLX4 on Strep-Tactin, 250 mM KCl, 40 mM HEPES-KOH pH 7.9, then Capto HiRes Q and Superdex 200; SDS-PAGE
Conditions: partners not purified

B1: Twin-Strep-SLX4^330-555 (domain or fragment, human, UniProt Q8IY92 330-555, looked up)
chain: VPQIPECPICGKPFLTLKSRTSHLKQCAVKMEVGPQLLLQAVRLQTAQPEGSSSPPMFSFSDHSRGLKRRGPTSKKEPRKRRKVDEAPSEDLLVAMALSRSEMEPGAAVPALRLESAFSERIRPEAENKSRKKKPPVSPPLLLVQDSETTGRQIEDRVALLLSEEVELSSTPPLPASRILKEGWERAGQCPPPPERKQSFLWEGSALTGAWAMEDFYTARLVPPLV
notes: from clone HsCD00821809 (DNASU) in vector 438-Sn; source: Sf9 (small-scale assays: Sf9 or Hi5), baculovirus co-infection with His6-XPF-ERCC1(-SLX4IP); purified as complexes (Strep-Tactin, Capto HiRes Q, Superdex 200) or in insect cell lysate; not shown: twin-Strep, N-terminal, kept
B1: binds.
